The results in this text go back to patent CN116836278A.

Test [1] addresses Prog-Albumin偶联物(购自益缪诺，货号PROGO2). The experiment in a line: indirect ELISA, Prog-Albumin conjugate coated at 3 ug/ml, antibody at 125 ng/ml. Background: In an ELISA, binding on a coated surface is turned into a signal by an enzyme label.
Test [2] has the same target. The experiment in a line: indirect ELISA, Prog-Albumin conjugate coated at 3 ug/ml, antibody at 250 ng/ml.
Test [3] shares this target. The experiment in a line: indirect ELISA, Prog-Albumin conjugate coated at 3 ug/ml, antibody at 62.5 ng/ml.
Test [4] shares this target. The test can be described thus: indirect ELISA, Prog-Albumin conjugate coated at 3 ug/ml, antibody at 31.25 ng/ml.
Test [5] has the same target. The experiment in a line: indirect ELISA, Prog-Albumin conjugate coated at 3 ug/ml, antibody at 15.625 ng/ml.
Test [6] has the same target. The experiment in a line: biolayer interferometry, AMC sensor, antibody immobilised at 10 ug/ml, Prog-Albumin conjugate in dilution series.

As for 对照 (antibody), the OD450 in test [1] was 1.85 OD; in test [2], 2.19 OD; in test [3], 0.686 OD; in test [4], 0.319 OD; in test [5], 0.148 OD. The molecule further had a dissociation constant Kd in test [6] of 9.12 nM. Besides, in test [6], the koff was found to be 0.0002 s⁻¹. In addition, the on-rate (kon) in test [6] amounted to 21900 M⁻¹ s⁻¹.

B1: Anti-Prog-5B3mut2 (antibody, part only; not given: light chain, part only)
heavy: QVRLQESGPSLVKPSQTLSLTCTVSGFELTSKAVGWVRQAPGKVPEWLGSIVSGGATYYDPALKSRLTITRDTSKSQVSLSISSVSSEDTAEYWCVRASYAAGIWYFDYWGPGLLVTVSSASTTPPKVYPLTSCCGDTSSSIVTLGCLVSSYMPEPVTVTWNSGALTSGVHTFPAILQSSGLYSLSSVVTVPASTSGAQTFICNVAHPASSTKVDKRVGLSSDYSKCSKPPCVSRPSVFIFPPKPKDSLMITGTPEVTCVVVDVGQGDPEVQFSWFVDNVEVRTARTKPREEQFNSTFRVVSALPIQHDHWTGGKEFKCKVHSKGLPAPLVRTISRAKGQAREPQVYVLAPPQEELSKSTLSVTCLVTGFYPDYIAVEWQRARQPESEDKYGTTTSQLDADGSYFLYSRLRVDKSSWQRGDTYACVVMHEALHNHYTQKSISKPPGK
Consider B1, for which the OD450 was determined as 2.06 OD in test [1]; 2.36 OD in test [2]; 1.07 OD in test [3]; 0.603 OD in test [4]; 0.36 OD in test [5]. Further, the Kd in test [6] worked out at 0.33 nM. For the same molecule, in test [6], the koff worked out at 0.00027 s⁻¹. In addition, the kon in test [6] was 819000 M⁻¹ s⁻¹.

B2: Anti-Prog-5B3mut1 (antibody, V domains shown)
VH: QVRLQESGPSLVKPSQTLSLTCTVSGFELTSKAVGWVRQAPGKVPEWLGSIVSGGATYYDPALKSRLTITRDTSKSQVSLSISSVSSEDTAEYWCVRASYAAGIWYFDYWGPGLLVTVSS
VL: QAVLTQPPSVSGSLGQRVSLTCSGSSTNIGGGSYVHWYQRLPASGLKTIIYGTSRRPSGVPDRFSGSRSGNTATLTITSLQAEDEADYYCATEDSGSYPFGSGTRLTVLG
B2: the OD450 in test [1] came out at 1.92 OD; in test [2] it was 2.22 OD; in test [3], 0.94 OD; in test [4], 0.566 OD; in test [5], 0.32 OD. The same molecule gave a dissociation constant (Kd) in test [6] of 0.168 nM. The dissociation rate constant (koff) in test [6] stood at 0.00032 s⁻¹. This molecule gave a kon in test [6] of 1.91e+06 M⁻¹ s⁻¹.

Usually Kd stands for the concentration at which binding is half-saturated. By koff is commonly meant the rate constant with which the complex falls apart. A higher koff goes with a short-lived complex. As usually defined, the kon is the rate constant with which the complex forms.
